Laboratory results reported in publication PMC9744130.

Biological target: BtAAV-10HB capsid viral proteins (VP1, VP2, VP3) assembled as the capsid (bat adeno-associated virus BtAAV-10HB)
Assay: cryo-EM structure

Substance: BtAAV-10HB capsid viral proteins (VP1, VP2, VP3) assembled as the capsid (complex)
- stoichiometry N: 60
